Test results taken from patent US20090214528A1 (published 2009).

Target: human tissue factor (human, UniProt P13726 33-295)
Assay: cell-based or functional assay

B1: CNTO 860 derived from the YB2/0 host cell line C1083B (antibody, human IgG1, kappa, V domains shown)
VH: QVQLVESGGGVVQPGRSLRLSCKASGFNIKDYYMHWVRQAPGKGLEWIGLIDPENGNTIYDPKFQGRFTISADNSKNTLFLQMDSLRPEDTAVYYCARDNSYYFDYWGQGTPVTVSS
VL: DIQMTQSPSSLSASVGDRVTITCKASQDIRKYLNWYQQKPGKAPKLLIYYATSLADGVPSRFSGSGSGTDYTFTISSLQPEDIATYYCLQHGESPYTFGQGTKLEITR
ADCC potency relative to CNTO 860 derived from C463, second experiment, 51Cr-release on HCT 116 cells: ~10 fold
